Experimental data published in patent publication US20030059419.

T1: GST-I-TRAF (human I-TRAF as a chimera protein with glutathione S transferase, purified from E. coli), Q92844
T1 chain: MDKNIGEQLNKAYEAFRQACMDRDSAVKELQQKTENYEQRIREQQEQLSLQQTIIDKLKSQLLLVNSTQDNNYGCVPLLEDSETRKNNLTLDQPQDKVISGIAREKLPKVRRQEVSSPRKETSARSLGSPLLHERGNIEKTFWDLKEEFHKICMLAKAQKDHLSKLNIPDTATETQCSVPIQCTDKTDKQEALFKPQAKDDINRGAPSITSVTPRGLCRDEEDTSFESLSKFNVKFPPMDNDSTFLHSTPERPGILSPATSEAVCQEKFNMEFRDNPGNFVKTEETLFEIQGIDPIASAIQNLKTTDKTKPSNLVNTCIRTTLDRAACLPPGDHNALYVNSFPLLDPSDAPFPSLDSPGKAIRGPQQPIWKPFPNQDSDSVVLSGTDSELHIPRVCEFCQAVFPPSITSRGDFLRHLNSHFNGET

T2: Myc-I-TRAF (human I-TRAF, full length, with a Myc epitope added to the N-terminal), Q92844
T2 chain: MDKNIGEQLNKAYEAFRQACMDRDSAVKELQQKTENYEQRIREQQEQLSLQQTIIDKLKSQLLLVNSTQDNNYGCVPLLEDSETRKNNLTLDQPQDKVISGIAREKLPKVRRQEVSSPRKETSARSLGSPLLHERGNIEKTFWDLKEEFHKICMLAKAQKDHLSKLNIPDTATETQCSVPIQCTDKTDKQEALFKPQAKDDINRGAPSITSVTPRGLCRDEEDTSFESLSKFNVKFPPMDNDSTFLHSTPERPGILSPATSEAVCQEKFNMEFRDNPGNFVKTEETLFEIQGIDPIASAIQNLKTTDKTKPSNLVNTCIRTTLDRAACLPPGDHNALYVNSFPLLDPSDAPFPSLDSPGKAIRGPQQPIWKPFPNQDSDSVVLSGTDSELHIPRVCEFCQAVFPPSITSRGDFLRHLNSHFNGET

B1: Flag-IKK-i (human IKK-i with a Flag epitope linked to the N-terminal) (protein)
chain: MQSTANYLWHTDDLLGQGATASVYKARNKKSGELVAVKVFNTTSYLRPREVQVREFEVLRKLNHQNIVKLFAVEETGGSRQKVLVMEYCSSGSLLSVLESPENAFGLPEDEFLVVLRCVVAGMNHLRENGIVHRDIKPGNIMRLVGEEGQSIYKLTDFGAARELDDDEKFVSVYGTEEYLHPDMYERAVLRKPQQKAFGVTVDLWSIGVTLYHAATGSLPFIPFGGPRRNKEIMYRITTEKPAGAIAGAQRRENGPLEWSYTLPITCQLSLGLQSQLVPILANILEVEQAKCWGFDQFFAETSDILQRVVVHVFSLSQAVLHHIYIHAHNTIAIFQEAVHKQTSVAPRHQEYLFEGHLCVLEPSVSAQHIAHTTASSPLTLFSTAIPKGLAFRDPALDVPKFVPKVDLQADYNTAKGVLGAGYQALRLARALLDGQELMFRGLHWVMEVLQATCRRTLEVARTSLLYLSSSLGTERFSSVAGTPEIQELKAAAELRSRLRTLAEVLSRCSQNITETQESLSSLNRELVKSRDQVHEDRSIQQIQCCLDKMNFIYKQFKKSRMRPGLGYNEEQIHKLDKVNFSHLAKRLLQVFQEECVQKYQASLVTHGKRMRVVHETRNHLRLVGCSVAACNTEAQGVQESLSKLLEELSHQLLQDRAKGAQASPPPIAPYPSPTRKDLLLHMQELCEGMKLLASDLLDNNRIIERLNRVPAPPDV
B2: mutant IKK-i (K38A), Flag-tagged human IKK-i with the No. 38 lysine replaced by alanine (protein)
chain: MQSTANYLWHTDDLLGQGATASVYKARNKKSGELVAVAVFNTTSYLRPREVQVREFEVLRKLNHQNIVKLFAVEETGGSRQKVLVMEYCSSGSLLSVLESPENAFGLPEDEFLVVLRCVVAGMNHLRENGIVHRDIKPGNIMRLVGEEGQSIYKLTDFGAARELDDDEKFVSVYGTEEYLHPDMYERAVLRKPQQKAFGVTVDLWSIGVTLYHAATGSLPFIPFGGPRRNKEIMYRITTEKPAGAIAGAQRRENGPLEWSYTLPITCQLSLGLQSQLVPILANILEVEQAKCWGFDQFFAETSDILQRVVVHVFSLSQAVLHHIYIHAHNTIAIFQEAVHKQTSVAPRHQEYLFEGHLCVLEPSVSAQHIAHTTASSPLTLFSTAIPKGLAFRDPALDVPKFVPKVDLQADYNTAKGVLGAGYQALRLARALLDGQELMFRGLHWVMEVLQATCRRTLEVARTSLLYLSSSLGTERFSSVAGTPEIQELKAAAELRSRLRTLAEVLSRCSQNITETQESLSSLNRELVKSRDQVHEDRSIQQIQCCLDKMNFIYKQFKKSRMRPGLGYNEEQIHKLDKVNFSHLAKRLLQVFQEECVQKYQASLVTHGKRMRVVHETRNHLRLVGCSVAACNTEAQGVQESLSKLLEELSHQLLQDRAKGAQASPPPIAPYPSPTRKDLLLHMQELCEGMKLLASDLLDNNRIIERLNRVPAPPDV

Key:
[1] = biological target: T1, GST-I-TRAF (human I-TRAF as a chimera …)
[2] = biological target: GST-IκB-αN protein (AA), GST-IκB-αN with the No. 32 and No. 36 serine residues replaced by alanine [GST: P08515]
[3] = biological target: GST-IκB-αN protein (WT), amino acids 1-72 of IκB-α fused to GST [GST: P08515]
[4] = biological target: Myc-I-TRAF (1-247) defective mutant, human I-TRAF amino acids No. 1-247 with N-terminal Myc, Q92844
[5] = biological target: T2, Myc-I-TRAF (human I-TRAF, full length, …)

Row | Protein | in vitro kinase assay with purified GST-I-TRAF (1.0 µg) added to the anti-Flag immunoprecipitate [1] | in vitro kinase assay ([γ-32P]ATP, 30° C., 20 minutes, SDS-PAGE, autoradiography) [2] | in vitro kinase assay ([γ-32P]ATP, 30° C., 20 minutes, SDS-PAGE, autoradiography) [3] | in vitro kinase assay on immunoprecipitates, I-TRAF deletion mutants [4] | in vitro kinase assay ([γ-32P]ATP) on immunoprecipitates [5] | in vitro kinase assay on immunoprecipitates, I-TRAF deletion mutants [5]
1 | B1 | in cells in which Flag-IKK-i was expressed, phosphorylation of GST-I-TRAF was observed | IKK-i did not phosphorylate GST-IκB-αN protein (AA) | IKK-i phosphorylated GST-IκB-αN protein (WT) | phosphorylations of FL (lanes 4 and 8) and Myc-I-TRAF (1-247)(lanes 2 and 6) were confirmed | Bands of phosphorylated Myc-I-TRAF were detected in both of immunoprecipitates with anti-Flag antibody (lane 2) or anti-Myc antibody (lane 4) | phosphorylations of FL (lanes 4 and 8) and Myc-I-TRAF (1-247)(lanes 2 and 6) were confirmed
2 | B2 | No phosphorylation was observed with the K38A mutant |  | K38A-IKK-i did not phosphorylate GST-IκB-αN protein (WT) |  |  | 
